From US20240209043A1 (ORAL SUBSIDIARY SUN YAT SEN UNIVERSITY HOSPITAL, published 2024)
Where no end group is shown, it is not given here.

Experiments:
[1] = target: T1, PD-1 on the surface of cells (Jurkat T cells stimulated with PMA and ionomycin; iCIKs) (human, UniProt Q15116 25-288); assay: flow cytometry blocking assay: peptide mixed with recombinant human PD-L1, PD-L1 binding to PD-1-expressing stimulated Jurkat T cells read with APC streptavidin
T1 construct: whole, on cells; Endogenous PD-1 of human cells; also called PD-1 on the surface of Jurkat T cells; PD-1-expressing Jurkat T cells
Experimental: (§1) The Jurkat T cells were divided into two groups, an experimental group and a control group, wherein in the experimental group, 50 ng/ml of Phorbol 12-myristate 13-acetate (PAM) and 1 ug/ml of Ionomycin Calcium Salt (Ionomycin) were used to stimulate the cells, and in the control group, Jurkat T cells were unstimulated. The cells (5×10⁵) were collected in each tube, and washed once with FACS buffer (PBS with 2% BSA). […] FACS buffer was used for washing the cells three times, and 0.12 ug/ml of APC Streptavidin (405207, Biolegend) was added to each tube and the incubation was performed for 1 hour at 4° C., and then the cells were washed three times with FACS buffer again, and 500 μl of PBS was added to resuspend the cells, which were further transferred to flow tubes and analyzed by flow cytometry.

[2] = target: T2, Recombinant Human PD-1 protein (PD1-H5221, Acro Biosystems) (human, UniProt Q15116 25-167); assay: SPR (Biacore T100), recombinant human PD-1 coupled to CM5 chip, peptide as analyte
T2 construct: Bought reagent, amine-coupled to a CM5 chip for SPR
Experimental: (§2) The affinity of the peptides was tested with Biocore T100 through surface plasmon resonance (SPR) technique. […] Finally, the affinities (Kd-value) of the peptides were calculated by fitting curves in the sensor diagram in Biacore software.

[3] = target: T2, Recombinant Human PD-1 protein …; assay: SPR (Biacore T100), recombinant human PD-1 coupled to a CM5 chip, peptide as analyte at 0.03125-2 µM
Experimental: as §2

[4] = target: T2, Recombinant Human PD-1 protein …; assay: SPR (Biacore T100), recombinant human PD-1 coupled to a CM5 chip, peptide as analyte at 0.3125-20 µM
Experimental: as §2

[5] = target: T3, Recombinant Human PD-L1 protein (PD1-H82F3, Acro Biosystems) (human, UniProt Q9NZQ7 19-238); assay: SPR (Biacore T100), recombinant human PD-L1 coupled to a CM5 chip, peptide as analyte at 0.03125-2 µM
T3 construct: Bought reagent
Experimental: as §2

[6] = target: T3, Recombinant Human PD-L1 protein …; assay: SPR (Biacore T100), recombinant human PD-L1 coupled to CM5 chip, peptide as analyte
Experimental: as §2

[7] = target: T1, PD-1 on the surface of cells (Jurkat T …); assay: flow cytometry blocking assay: peptide mixed with recombinant human PD-L1, PD-L1 binding to PD-1-expressing stimulated Jurkat T cells read with APC streptavidin; nABP486 also binds PD-L1 itself (Figure 2D)
Experimental: as §1

T1 sequence (Q15116 25-288): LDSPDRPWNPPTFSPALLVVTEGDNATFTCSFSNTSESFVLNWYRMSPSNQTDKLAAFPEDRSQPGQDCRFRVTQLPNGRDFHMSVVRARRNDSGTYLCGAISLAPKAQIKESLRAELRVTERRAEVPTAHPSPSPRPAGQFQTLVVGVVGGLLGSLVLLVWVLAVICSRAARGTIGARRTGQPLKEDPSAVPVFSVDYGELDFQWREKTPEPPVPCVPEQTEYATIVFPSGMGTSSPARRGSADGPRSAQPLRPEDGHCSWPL
T2 sequence (Q15116 25-167 limits assumed): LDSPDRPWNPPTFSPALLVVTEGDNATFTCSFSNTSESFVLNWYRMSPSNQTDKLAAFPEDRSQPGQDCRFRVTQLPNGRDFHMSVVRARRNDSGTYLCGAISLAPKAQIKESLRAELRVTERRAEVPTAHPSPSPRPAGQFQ
T3 sequence (Q9NZQ7 19-238 limits assumed): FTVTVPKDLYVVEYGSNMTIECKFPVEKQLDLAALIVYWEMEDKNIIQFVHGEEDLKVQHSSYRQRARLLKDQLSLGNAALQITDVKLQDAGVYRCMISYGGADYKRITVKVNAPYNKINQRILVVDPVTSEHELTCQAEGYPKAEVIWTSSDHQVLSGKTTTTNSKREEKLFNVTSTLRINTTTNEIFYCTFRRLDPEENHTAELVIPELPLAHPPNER

| IC50 [1] [µM] | Kd [2] [nM] | koff [3] [s⁻¹] | kon [3] [M⁻¹ s⁻¹] | Kd [4] [µM] | Kd [5] [nM] | koff [5] [s⁻¹] | kon [5] [M⁻¹ s⁻¹] | Kd [6] [nM] | IC50 [7] [nM] | Binder |
| --- | --- | --- | --- | --- | --- | --- | --- | --- | --- | --- |
| 3.42 | 75.1 | 0.00293 | 39000 | – | – | – | – | – | – | nABP386 (also: bond at chain A 27 at chain B 6 to a chain's C-terminus, Branched synthetic peptide (Fmoc solid-phase synthesis)) chain 1: SRLKEIANSPTQFWRMVARNTLGNHAKQSLNIEHA chain 2: SHHHRL |
| 9.61 | – | – | – | 11.8 | – | – | – | – | – | SRLKEIANSPTQFWRMVARNTLGGAKQSLNIEHARL (not fully specified, also called PD-1-nABP284) [nABP284] |
| – | 11.9 | 0.00589 | 496000 | – | 52.4 | 0.00204 | 38900 | 54.2 | 2580 | nABP486 (also: lactam at chain A 7 at chain B 6 to a chain's C-terminus, Branched synthetic peptide (Fmoc solid-phase synthesis)) chain 1: SHHHRLKLKEIANSPTQFWRMVARNTLGNGAKQSLNIEHA chain 2: SHHHRL |
| – | 5.84 | 0.000453 | 77600 | – | – | 0.000486 | 29000 | 16.7 | – | nABP786 (cysteine pairing not given here; also: lactam at chain A 7 at chain B 6 to a chain's C-terminus) chain 1: SHHHRLKLKEIANCSPTQFKC chain 2: SHHHRL |
